Reference: patent US20150344570A1 (published 2015)

T1: FcγRIIa H (FcγRIIa type H, His at position 131), extracellular domain with C-terminal His tag (human, UniProt P12318 34-217)
T1 construct: extracellular domain; expressed in FreeStyle293 cells; also called FcgRIIa H; 2aH; not shown: His tag attached to the C terminus
T1 sequence (looked up): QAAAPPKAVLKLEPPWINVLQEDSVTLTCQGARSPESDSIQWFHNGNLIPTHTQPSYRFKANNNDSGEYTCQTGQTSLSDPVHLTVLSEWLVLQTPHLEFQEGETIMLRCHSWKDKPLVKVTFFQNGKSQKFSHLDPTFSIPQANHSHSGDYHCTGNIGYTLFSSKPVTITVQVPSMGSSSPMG

T2: FcγRIIb, extracellular domain with C-terminal His tag (human, UniProt P31994 43-217)
T2 construct: extracellular domain; expressed in FreeStyle293 cells; also called FcgRIIb; 2b; not shown: His tag attached to the C terminus
T2 sequence (looked up): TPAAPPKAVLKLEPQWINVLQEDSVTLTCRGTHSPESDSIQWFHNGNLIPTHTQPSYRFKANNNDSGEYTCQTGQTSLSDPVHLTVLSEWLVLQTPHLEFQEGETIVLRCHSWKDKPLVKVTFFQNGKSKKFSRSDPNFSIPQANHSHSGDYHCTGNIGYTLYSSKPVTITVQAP

T3: FcγRIIb extracellular domain with C-terminal His tag (human, UniProt P31994 43-217)
T3 construct: extracellular domain; Soluble receptor used as analyte in Biacore; also called FcgRIIb
T3 sequence (looked up): T2 sequence (looked up)

B1: GpH7-A5/GpH7-B3 variant P238_07I/GpL16-k0 (antibody, human IgG1, kappa)
heavy 1: not shown
heavy 2: not shown
light: DIVMTQSPLSLPVTPGEPASISCQASESLVHSNRNTYLHWYLQKPGQSPQLLIYKVSNRFSGVPDRFSGSGSGTDFTLKISRVEAEDVGVYYCSQNTHVPPTFGQGTKVEIERTVAAPSVFIFPPSDEQLKSGTASVVCLLNNFYPREAKVQWKVDNALQSGNSQESVTEQDSKDSTYSLSSTLTLSKADYEKHKVYACEVTHQGLSSPVTKSFNRGEC
notes: Heterodimerized antibody (He Ab): mutation in the GpH7-B3 chain only; also called He Ab
B2: GpH7-A5/GpH7-B3 variant H268_01G/GpL16-k0 (antibody, human IgG1, kappa)
heavy 1: not shown
heavy 2: not shown
light: B1 light
notes: Heterodimerized IgG1, mutation in the GpH7-B3 chain only; also called He Ab
B3: GpH7-A5/GpH7-B3 variant S267_07I/GpL16-k0 (antibody, human IgG1, kappa)
heavy 1: not shown
heavy 2: not shown
light: B1 light
notes: as for B2
B4: GpH7-A5/GpH7-B3 variant H268_10E/GpL16-k0 (antibody, human IgG1, kappa)
heavy 1: not shown
heavy 2: not shown
light: B1 light
notes: as for B2
B5: GpH7-A5/GpH7-B3 variant H268_02A/GpL16-k0 (antibody, human IgG1, kappa)
heavy 1: not shown
heavy 2: not shown
light: B1 light
notes: as for B2
B6: GpH7-A5/GpH7-B3 variant V266_12R/GpL16-k0 (antibody, human IgG1, kappa)
heavy 1: not shown
heavy 2: not shown
light: B1 light
notes: as for B2
B7: GpH7-A5/GpH7-B3 variant K326_08L/GpL16-k0 (antibody, human IgG1, kappa)
heavy 1: not shown
heavy 2: not shown
light: B1 light
notes: as for B2
B8: GpH7-A5/GpH7-B3 variant K326_14T/GpL16-k0 (antibody, human IgG1, kappa)
heavy 1: not shown
heavy 2: not shown
light: B1 light
notes: as for B2
B9: GpH7-A5/GpH7-B3 variant K326_20W/GpL16-k0 (antibody, human IgG1, kappa)
heavy 1: not shown
heavy 2: not shown
light: B1 light
notes: as for B2
B10: GpH7-A5/GpH7-B3 variant H268_18N/GpL16-k0 (antibody, human IgG1, kappa)
heavy 1: not shown
heavy 2: not shown
light: B1 light
notes: as for B2
B11: GpH7-A5/GpH7-B3 variant K326_19Q/GpL16-k0 (antibody, human IgG1, kappa)
heavy 1: not shown
heavy 2: not shown
light: B1 light
notes: as for B2
B12: GpH7-A5/GpH7-B3 variant V266_08L/GpL16-k0 (antibody, human IgG1, kappa)
heavy 1: not shown
heavy 2: not shown
light: B1 light
notes: as for B2
B13: GpH7-A5/GpH7-B3 variant K326_07I/GpL16-k0 (antibody, human IgG1, kappa)
heavy 1: not shown
heavy 2: not shown
light: B1 light
notes: as for B2
B14: GpH7-A5/GpH7-B3 variant K326_04F/GpL16-k0 (antibody, human IgG1, kappa)
heavy 1: not shown
heavy 2: not shown
light: B1 light
notes: as for B2
B15: GpH7-A5/GpH7-B3 variant K326_09D/GpL16-k0 (antibody, human IgG1, kappa)
heavy 1: not shown
heavy 2: not shown
light: B1 light
notes: as for B2
B16: GpH7-A5/GpH7-B3 variant K326_15Y/GpL16-k0 (antibody, human IgG1, kappa)
heavy 1: not shown
heavy 2: not shown
light: B1 light
notes: as for B2
B17: GpH7-A5/GpH7-B3 variant H268_13S/GpL16-k0 (antibody, human IgG1, kappa)
heavy 1: not shown
heavy 2: not shown
light: B1 light
notes: as for B2
B18: GpH7-A5/GpH7-B3 variant K326_06M/GpL16-k0 (antibody, human IgG1, kappa)
heavy 1: not shown
heavy 2: not shown
light: B1 light
notes: as for B2
B19: GpH7-A5/GpH7-B3 variant S267_09D/GpL16-k0 (antibody, human IgG1, kappa)
heavy 1: not shown
heavy 2: not shown
light: B1 light
notes: as for B2
B20: GpH7-A5/GpH7-B3 variant H268_09D/GpL16-k0 (antibody, human IgG1, kappa)
heavy 1: not shown
heavy 2: not shown
light: B1 light
notes: as for B2
B21: GpH7-A5/GpH7-B3 variant P271_01G/GpL16-k0 (antibody, human IgG1, kappa)
heavy 1: not shown
heavy 2: not shown
light: B1 light
notes: as for B2
B22: GpH7-A5/GpH7-B3 variant S267_06M/GpL16-k0 (antibody, human IgG1, kappa)
heavy 1: not shown
heavy 2: not shown
light: B1 light
notes: as for B2
B23: GpH7-A5/GpH7-B3 variant S267_03V/GpL16-k0 (antibody, human IgG1, kappa)
heavy 1: not shown
heavy 2: not shown
light: B1 light
notes: as for B2
B24: GpH7-A5/GpH7-B3 variant S267_10E/GpL16-k0 (antibody, human IgG1, kappa)
heavy 1: not shown
heavy 2: not shown
light: B1 light
notes: as for B2
B25: GpH7-A5/GpH7-B3 variant S267_19Q/GpL16-k0 (antibody, human IgG1, kappa)
heavy 1: not shown
heavy 2: not shown
light: B1 light
notes: as for B2
B26: GpH7-A5/GpH7-B3 variant S267_02A/GpL16-k0 (antibody, human IgG1, kappa)
heavy 1: not shown
heavy 2: not shown
light: B1 light
notes: as for B2
B27: GpH7-A5/GpH7-B3 variant K326_03V/GpL16-k0 (antibody, human IgG1, kappa)
heavy 1: not shown
heavy 2: not shown
light: B1 light
notes: as for B2
B28: GpH7-A5/GpH7-B3 variant K326_10E/GpL16-k0 (antibody, human IgG1, kappa)
heavy 1: not shown
heavy 2: not shown
light: B1 light
notes: as for B2
B29: GpH7-A5/GpH7-B3 variant V266_07I/GpL16-k0 (antibody, human IgG1, kappa)
heavy 1: not shown
heavy 2: not shown
light: B1 light
notes: as for B2
B30: GpH7-A5/GpH7-B3 variant I332_02A/GpL16-k0 (antibody, human IgG1, kappa)
heavy 1: not shown
heavy 2: not shown
light: B1 light
notes: as for B2
B31: GpH7-A5/GpH7-B3 variant I332_06M/GpL16-k0 (antibody, human IgG1, kappa)
heavy 1: not shown
heavy 2: not shown
light: B1 light
notes: as for B2
B32: GpH7-A5/GpH7-B3 variant P331_20W/GpL16-k0 (antibody, human IgG1, kappa)
heavy 1: not shown
heavy 2: not shown
light: B1 light
notes: as for B2
B33: GpH7-A5/GpH7-B3 variant I332_14T/GpL16-k0 (antibody, human IgG1, kappa)
heavy 1: not shown
heavy 2: not shown
light: B1 light
notes: as for B2
B34: GpH7-A5/GpH7-B3 variant I332_15Y/GpL16-k0 (antibody, human IgG1, kappa)
heavy 1: not shown
heavy 2: not shown
light: B1 light
notes: as for B2
B35: GpH7-A5/GpH7-B3 variant I332_04F/GpL16-k0 (antibody, human IgG1, kappa)
heavy 1: not shown
heavy 2: not shown
light: B1 light
notes: as for B2

target: T1, FcγRIIa H (FcγRIIa type H, His at …); assay: SPR (Biacore), antibody captured on antigen peptide chip, FcγR as analyte; relative to GpH7-A5/GpH7-B3/GpL16-k0 = 100

Row | He/Con_2aH (relative binding activity) | Binder
1 | 57.6 % of HeCon Ab (= 100) | B1

target: T2, FcγRIIb, extracellular domain with …; assay: as above

Row | He/Con_2b (relative binding activity) | Binder
2 | 80 % of HeCon Ab (= 100) | B1

target: T1, FcγRIIa H (FcγRIIa type H, His at …); assay: SPR (Biacore); He/Con_2aH divided by He/Con_2b (FcγRIIa H against FcγRIIb)

Row | He_2aH/2b (IIaH/IIb) [ratio] | Binder
3 | 0.72 | B1

target: T4, FcγRIa extracellular domain with C-terminal His tag (human, UniProt P12314 16-292); assay: ratio He/Con_1a : He/Con_2b (FcγRIa over FcγRIIb), SPR (Biacore)
T4 construct: extracellular domain; Soluble receptor used as analyte in Biacore; also called FcgRI
T4 sequence (P12314 16-292): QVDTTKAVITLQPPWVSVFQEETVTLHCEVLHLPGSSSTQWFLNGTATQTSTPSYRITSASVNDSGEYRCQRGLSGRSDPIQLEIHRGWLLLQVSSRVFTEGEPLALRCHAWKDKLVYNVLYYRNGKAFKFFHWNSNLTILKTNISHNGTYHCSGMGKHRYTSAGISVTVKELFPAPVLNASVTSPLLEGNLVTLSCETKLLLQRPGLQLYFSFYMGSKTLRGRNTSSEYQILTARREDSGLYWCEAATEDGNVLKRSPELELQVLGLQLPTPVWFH

Row | He_1a/2b (Ia/IIb) | Binder
4 | 0.75 | B2
5 | 0.52 | B3
6 | 0.48 | B4
7 | 0.65 | B5
8 | -55.6 | B6
9 | 0.57 | B7
10 | 0.7 | B8
11 | 0.69 | B9
12 | 0.69 | B10
13 | 0.73 | B11
14 | 0.42 | B12
15 | 0.51 | B13
16 | 0.66 | B14
17 | 0.54 | B15
18 | 0.66 | B16
19 | 0.68 | B17
20 | 0.62 | B18
21 | 0.35 | B19
22 | 0.46 | B20
23 | 0.54 | B21
24 | 0.51 | B22
25 | 0.55 | B23
26 | 0.28 | B24
27 | 0.47 | B25
28 | 0.45 | B26
29 | 0.58 | B27
30 | 0.52 | B28
31 | 0.65 | B29

target: T3, FcγRIIb extracellular domain with …; assay: SPR (Biacore), antibody captured, FcγR as analyte; binding relative to GpH7-A5/GpH7-B3/GpL16-k0 = 100

Row | He/Con_2b [control = 100] | Binder
32 | 144 | B2
33 | 192 | B3
34 | 230 | B4
35 | 167 | B5
36 | -1.1 | B6
37 | 177 | B7
38 | 150 | B8
39 | 148 | B9
40 | 156 | B10
41 | 139 | B11
42 | 236 | B12
43 | 199 | B13
44 | 155 | B14
45 | 193 | B15
46 | 159 | B16
47 | 160 | B17
48 | 165 | B18
49 | 310 | B19
50 | 239 | B20
51 | 193 | B21
52 | 210 | B22
53 | 192 | B23
54 | 379 | B24
55 | 218 | B25
56 | 243 | B26
57 | 175 | B27
58 | 200 | B28
59 | 152 | B29

target: T4, FcγRIa extracellular domain with …; assay: as above

Row | He/Con_1a [control = 100] | Binder
60 | 107 | B2
61 | 100 | B3
62 | 111 | B4
63 | 109 | B5
64 | 59.2 | B6
65 | 100 | B7
66 | 104 | B8
67 | 103 | B9
68 | 108 | B10
69 | 102 | B11
70 | 98.1 | B12
71 | 101 | B13
72 | 102 | B14
73 | 103 | B15
74 | 106 | B16
75 | 109 | B17
76 | 102 | B18
77 | 110 | B19
78 | 110 | B20
79 | 105 | B21
80 | 106 | B22
81 | 106 | B23
82 | 106 | B24
83 | 102 | B25
84 | 109 | B26
85 | 102 | B27
86 | 104 | B28
87 | 99.3 | B29

target: T3, FcγRIIb extracellular domain with …; assay: as above; remark: another data set of the same source

Row | He/Con_2b [control = 100] | Binder
88 | 103 | B30
89 | 105 | B31
90 | 111 | B32
91 | 106 | B33
92 | 101 | B34
93 | 104 | B35

target: T4, FcγRIa extracellular domain with …; assay: as above; remark: another data set of the same source

Row | He/Con_1a [control = 100] | Binder
94 | 88.3 | B30
95 | 92.3 | B31
96 | 94.5 | B32
97 | 91.8 | B33
98 | 88.8 | B34
99 | 93.6 | B35
